This note sets out measurements from PMC11362169, “Interdomain-linkers control conformational transitions in the SLC23 elevator transporter UraA” (Nature Communications, 2024).

For data set [1], the target named is T1, UraA (Escherichia coli, UniProt P0AGM7).
T1 construct: full-length ORF, expressed in E. coli MC1061 from pBXC3GH (tag removed with HRV-3C protease), decylmaltoside-solubilized; C-terminal biotinylated AVI-tag for SPA; WT and G112P monomeric, P330G dimeric, G320P both fractions
As to the kind of experiment: differential scanning fluorimetry (CPM dye). It is filed as binding. Particulars: 20 mM Hepes pH 7.5, 150 mM NaCl, 0.2% DM. For orientation: Differential scanning fluorimetry follows unfolding on heating by fluorescence.

In data set [2] the target is uracil. As to the kind of experiment: scintillation proximity assay (homologous competition with 3H-uracil). In general terms: In a scintillation proximity assay essentially only radioactivity close to the scintillant gives light.
Data set [3] deals with T2, wild type UraA (E. coli uracil permease) (E. coli, UniProt P0AGM7).
T2 construct: uracil permease UraA, E. coli; open reading frame amplified from genomic DNA of E. coli MC1061; Membrane protein in 0.2% decylmaltoside; elutes as monomers and dimers; A few residues of the FX cloning sites and of the 3C site probably remain after cleavage (surmised); also called UraA(WT); source: E. coli MC1061 (pBXC3GH), purified (decylmaltoside-solubilised, Ni-NTA, eluted with HRV-3C protease, …)
As to the kind of experiment: differential scanning fluorimetry; UraA variants 0.1 mg/mL in 20 mM Hepes pH 7.5, 150 mM NaCl, 0.2% DM, without uracil, in absence and presence of Sy45; CPM dye, 25 to 90 °C at 2 °C/min. The conditions noted are these: both partners purified.

For `O=c1cc[nH]c(=O)[nH]1` [uracil], in data set [1], the “Tm with 1 mM uracil (apo Tm 54.2 ± 0.2 °C)” value came out at 64.1 ± 0.1 °C.

The term Kd denotes the free concentration of one partner at which half of the binding sites on the other are occupied at equilibrium, for simple one-to-one binding. For “wild type UraA (E. coli uracil permease) (from UniProt P0AGM7) G320P”, the Kd in data set [2] (absence of Sy45) was determined as 35 nM; in data set [2] (presence of Sy45 (panel titled UraA(G320P)-Sy45)) it was 144 nM.

Regarding “wild type UraA (E. coli uracil permease) (from UniProt P0AGM7) P330G”, the equilibrium dissociation constant (Kd) in data set [2] (absence of Sy45) was 7 nM.

B1: sybody Sy45 (synthetic nanobody) (VHH)
VHH: QVQLVESGGGSVQAGGSLRLSCAASGNIAYIHYLGWFRQAPGKEREGVAALSTTLGNTYYADSVKGRFTVSLDNAKNTVYLQMNSLKPEDTALYYCAAAYFGYSSPLAHERYMYWGQGTQVTVSA
notes: sybody with a convex paratope, selected from a synthetic library against wild type UraA; also called synthetic single-domain antibody; conformational probe
For the molecule B1, the “thermostabilization (increase of melting temperature)” value in data set [3] was 16.7 °C.
